# Data taken from patent US20130142799A1 (Amgen, published 2013).
# B1: Ab 526 (antibody, human IgG1, kappa, V domains shown)
# VH: EVQLVESGGGVVQPGRSLRLSCAASGFTFSSYGMHWVRQAPGKGLEWVSAISGSGGSTYYADSVKGRFTISRDNAKNSLYLQMNSLRAEDTAVYYCARDLLDYDILTGPYAYWGQGTLVTVSS
# VL: not shown
# notes: Fully human IgG1 kappa
# B2: Ab 544 (antibody, human IgG1, lambda, V domains shown)
# VH: QVQLVQSGAEVKKPGASVKVSCKASGGTFSSYAISWVRQAPGQGLEWMGGIIPIFGTANYAQKFQGRVTITADESTSTAYMELSSLRSEDTAVYYCARFESGYWGDAFDIWGQGTMVTVSS
# VL: SYELTQPPSVSVSPGQTARITCSGDALPKQYAYWYQQKPGQAPVLVIYKDSERPSGIPERFSGSSSGTTVTLTISGVQAEDEADYYCQSADSSHVVFGGGTKLTVLG
# notes: also called clone 544
# B3: Ab G1D4 (antibody, human IgG1, lambda, V domains shown)
# VH: QVQLVQSGAEVKKPGSSVKVSCKASGGTFSSHAISWVRQAPGQGLEWMGRIIPILGIANYAQKFQGRVTITADESTSTAYMELSSLRSEDTAVYYCATSRLEWLLYLDYWGQGTLVTVSS
# VL: NFMLTQPHSVSESPGKTVIIPCTRSSGSIASNYVQWYQKRPGSAPSIVIYEDKQRPSGVPDRFSGSIDSSSNSASLTISGLKTEDEADYYCQSYNSRGVMFGGGTKLTVLG
# notes: Fully human IgG1 lambda
# B4: Ab 536 (THW/LQT mixture) (antibody, V domains shown)
# VH: EVQLVQSGGGVVQPGRSLRLSCAASGFTFSSYGMHWVRQAPGKGLEWVSYISSSGSTIYYADSVKGRFTISRDNAKNSLYLQMNSLRAEDTAVYYCARDLLDYDILTGYGYWGQGTLVTVSS
# VL: not shown
# notes: each antibody in the mixture has two heavy and two light chains; also called clone 536; copies: 2 + 2
# B5: Ab536 THW (antibody, human IgG1, kappa, V domains shown)
# VH: B4 VH
# VL: not shown
# notes: Fully human IgG1 kappa; variant separated from the clone 536 mixture; also called 536 kappa THW variant
# B6: Ab536 LQT (antibody, human IgG1, kappa, V domains shown)
# VH: B4 VH
# VL: not shown
# notes: Fully human IgG1 kappa; variant separated from the clone 536 mixture; also called 536 kappa LQT variant
# B7: Ab 545 (antibody, human IgG1, lambda, V domains shown)
# VH: QVQLQESGGGVVQPGRSLRLSCAASGFTFSSYGMHWVRQAPGKGLEWVAVISYDGSNKYYADSVKGRFTISRDNSKNTLYLQMNSLRAEDTAVYYCAKGPVDFDYGDYAIDYWGQGTLVTVSS
# VL: QSVLTQPSSVSGAPGQRVTISCTGQSSNIGAGYDVHWYQQFPGRAPKLLIYGNSNRPSGVPDRFSGSKSGTSASLAITGLQPEDEADYYCQSYDSRLSGSVFGGGTKLTVLG
# notes: Fully human IgG1 lambda; also called clone 545
# Experiments:
# human angiopoietin-1 [1] = molecular target: T1, human angiopoietin-1 (human, UniProt Q15389 20-498); assay: Neutralization ELISA: antibody titrated against 1 nM Tie2-Fc on plate-bound hAng-1
# T1 construct: also called hAng-1; Human Ang1
# T1 sequence (looked up): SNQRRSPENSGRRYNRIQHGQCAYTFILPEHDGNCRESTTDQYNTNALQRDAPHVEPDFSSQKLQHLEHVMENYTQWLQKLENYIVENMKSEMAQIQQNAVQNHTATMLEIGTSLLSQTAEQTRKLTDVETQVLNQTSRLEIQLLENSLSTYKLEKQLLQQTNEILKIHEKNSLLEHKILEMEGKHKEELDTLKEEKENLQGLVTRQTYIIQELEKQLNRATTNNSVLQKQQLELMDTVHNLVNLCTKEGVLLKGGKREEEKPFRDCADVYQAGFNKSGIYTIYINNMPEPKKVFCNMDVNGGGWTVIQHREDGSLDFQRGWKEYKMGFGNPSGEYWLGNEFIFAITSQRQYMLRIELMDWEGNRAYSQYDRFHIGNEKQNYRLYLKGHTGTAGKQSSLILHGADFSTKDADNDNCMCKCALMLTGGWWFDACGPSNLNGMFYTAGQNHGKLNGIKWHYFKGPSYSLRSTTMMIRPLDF
# human angiopoietin-2 [2] = molecular target: T2, human angiopoietin-2 (human, UniProt O15123 19-496, limits assumed); assay: Neutralization ELISA: antibody titrated against 1 nM Tie2-Fc on plate-bound hAng-2
# T2 construct: also called hAng-2; huAng-2
# T2 sequence (looked up): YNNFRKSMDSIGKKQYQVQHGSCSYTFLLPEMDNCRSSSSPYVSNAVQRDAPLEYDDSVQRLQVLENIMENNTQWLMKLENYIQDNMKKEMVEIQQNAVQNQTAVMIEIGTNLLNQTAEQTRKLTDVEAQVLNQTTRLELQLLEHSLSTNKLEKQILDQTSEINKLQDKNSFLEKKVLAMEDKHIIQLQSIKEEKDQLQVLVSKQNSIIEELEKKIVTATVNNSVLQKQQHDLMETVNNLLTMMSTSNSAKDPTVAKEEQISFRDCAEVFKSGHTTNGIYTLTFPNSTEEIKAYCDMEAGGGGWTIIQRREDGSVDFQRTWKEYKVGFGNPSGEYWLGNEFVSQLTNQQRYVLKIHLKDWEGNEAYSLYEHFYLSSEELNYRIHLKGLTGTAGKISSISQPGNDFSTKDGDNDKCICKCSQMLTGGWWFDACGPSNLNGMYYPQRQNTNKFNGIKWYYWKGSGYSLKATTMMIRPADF
# Procedure: Microtiter plates to which human Ang-2 polypeptide was bound were prepared as described for the Affinity ELISA. […] Next, about 100 microliters per well of goat anti-mouse-IgG-HRP (Pierce Chemical CO., catalog #31432) was added at a dilution of 1:10,000 in PBS containing about 1 percent BSA. Plates were incubated at room temperature for about 1 hour, after which they were washed five times with PBS containing about 0.1 percent Tween-20. About 100 microliters per well of TMB substrate (described above) was then added and color was allowed to develop. Absorbance was then read in a spectrophotomer at 370 nm.
# Seventeen of the antibodies and a negative control IgG1 (referred to as RDB1) were tested using affinity and neutralization ELISA (as described in Example 3 above) as well as the BIAcore neutralization assay to determine their affinity, neutralization, and specificity capabilities.
# murine Ang-2, His-tagged [3] = molecular target: T3, murine Ang-2, His-tagged (mouse, UniProt O35608 19-496); assay: Neutralization ELISA: antibody titrated against 1 nM Tie2-Fc on plate-bound mAng-2
# T3 construct: also called mAng-2; mAng-2-His
# T3 sequence (looked up): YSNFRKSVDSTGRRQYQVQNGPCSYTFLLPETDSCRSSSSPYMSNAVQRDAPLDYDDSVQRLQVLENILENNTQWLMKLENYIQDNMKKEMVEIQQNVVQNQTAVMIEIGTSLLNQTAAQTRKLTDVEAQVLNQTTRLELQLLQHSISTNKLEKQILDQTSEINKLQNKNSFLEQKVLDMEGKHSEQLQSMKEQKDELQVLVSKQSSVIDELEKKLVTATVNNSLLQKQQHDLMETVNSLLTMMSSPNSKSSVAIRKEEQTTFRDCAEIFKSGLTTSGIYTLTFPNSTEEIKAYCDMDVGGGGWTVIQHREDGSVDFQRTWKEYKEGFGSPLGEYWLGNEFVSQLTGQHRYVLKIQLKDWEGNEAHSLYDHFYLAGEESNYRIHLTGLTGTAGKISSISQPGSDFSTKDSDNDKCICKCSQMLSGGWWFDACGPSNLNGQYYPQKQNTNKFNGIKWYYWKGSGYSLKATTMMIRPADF
# human angiopoietin-1 [4] = molecular target: T1, human angiopoietin-1; assay: Affinity ELISA on plate-bound hAng-1
# human angiopoietin-2 [5] = molecular target: T2, human angiopoietin-2; assay: Affinity ELISA on plate-bound hAng-2
# murine Ang-2, His-tagged [6] = molecular target: T3, murine Ang-2, His-tagged; assay: Affinity ELISA on plate-bound mAng-2
# murine Ang-2, His-tagged [7] = molecular target: T3, murine Ang-2, His-tagged; assay: BIAcore: antibody captured on Protein G, mAng-2 injected
# Procedure: (§1) Binding assays were carried out by first attaching about 100 Ru of each candidate anti-Ang-2 antibody to the immobilized Protein G, after which various concentrations (0-100 nM) of huAng-2 or mAng-2 were then injected over the bound antibody surface at a flow rate of about 50 ul/min for about 3 minutes. Antibody binding kinetics including kₐ (association rate constant), kd (dissociation rate constant) and KD (dissociation equilibrium constant) were determined using the BIA evaluation 3.1 computer program (BIAcore, Inc.).
# human angiopoietin-2 [8] = molecular target: T2, human angiopoietin-2; assay: BIAcore: antibody captured on Protein G, huAng-2 injected
# Procedure: as §1
# human angiopoietin-2 [9] = molecular target: T2, human angiopoietin-2; assay: HTRF: antibody titrated against biotinylated human Ang2 and APC-conjugated human Tie2-Fc
# Procedure: For HTRF assays, a ninety-six-well microtiter “mix plate” was prepared by adding 50 ul of HTRF buffer (50 mM Tris-HCl, pH 7.5, 100 mM NaCl, 0.05% Tween 20, 0.1% BSA) containing 0.8 nM Europium-conjugated streptavidin (PERKIN ELMER LIFE SCIENCES INC., catalog #AD0062) and 4.0 nM biotinylated human angiopoietin 1 (R & D Systems) or angiopoietin 2 (Amgen Inc.) to each well. In a separate microtiter plate, angiopoietin-neutralizing agents were titrated from 400 nM to […] in HTRF buffer, and 50 ul of each serially-diluted angiopoietin-neutralizing agent were then transferred and mixed with the “mix plate” containing the streptavidin-Europium/angiopoietin. The plate was then incubated on a shaker at room temperature for one hour. […] The final “assay plate” was incubated at room temperature with shaking for two hours. […] Assay plates were analyzed using a Rubystar plate reader (BMG Labtechnologies, Offenberg, Germany). […] IC50 values were then calculated by analyzing percentage inhibition using the GRAFIT 5.0 program (Erithacus Software Ltd.).
# (§2) All results were expressed as IC50 curves calculated from samples that were tested in duplicate using the formula below.
# human angiopoietin-2 [10] = molecular target: T2, human angiopoietin-2; assay: ELISA: antibody titrated against 1 nM hTie2-Fc on plate-bound human Ang2 (293T conditioned media)
# Procedure: (§3) For the ELISA assay, ninety-six-well microtiter plates were coated with recombinant angiopoietins in 293T cell conditioned media (DMEM/50 ug/ml BSA) at 37° C. for 1 hour. […] Plates were washed with PBS/0.1% Tween-20 and then blocked for 2 hours at room temperature with PBS/5% BSA. […] Goat anti-mouse-IgG-HRP (Pierce, catalog #31432) was added at a dilution of 1:10,000 in PBS/1% BSA (1 hour incubated at room temperature), after which plates were washed several times with PBS/0.1% Tween-20.
# as §2
# [11] = molecular target: T4, Mouse Ang2 (recombinant, 293T cell conditioned media) (mouse, UniProt O35608 19-496); assay: ELISA: antibody titrated against 1 nM hTie2-Fc on plate-bound mouse Ang2 (293T conditioned media)
# T4 construct: construct not described
# T4 sequence (looked up): T3 sequence (looked up)
# Procedure: as §3, §2
Binder,IC50 (human angiopoietin-1 [1]),IC50 (human angiopoietin-2 [2]),"IC50 (murine Ang-2, His-tagged [3])",EC50 (human angiopoietin-1 [4]),EC50 (human angiopoietin-2 [5]),"EC50 (murine Ang-2, His-tagged [6])","Kd (murine Ang-2, His-tagged [7])","koff (murine Ang-2, His-tagged [7])","kon (murine Ang-2, His-tagged [7])",Kd (human angiopoietin-2 [8]),koff (human angiopoietin-2 [8]),kon (human angiopoietin-2 [8]),IC50 (human angiopoietin-2 [9]),IC50 (human angiopoietin-2 [10]),IC50 [11]
B1,243 nM,1.83 nM,0.27 nM,,,,,,,,,,,,
B2,23.3 nM,0.97 nM,1.82 nM,,,,,,,,,,,,
B3,69.5 nM,1.39 nM,0.6 nM,,,,,,,,,,,,
B4,115 nM,0.08 nM,0.05 nM,30 nM,0.005 nM,0.01 nM,0.15 nM,9.5e-05 s⁻¹,620000 M⁻¹ s⁻¹,0.12 nM,3.8e-05 s⁻¹,320000 M⁻¹ s⁻¹,,,
B5,,,,,,,,,,,,,0.071 nM,0.31 nM,0.088 nM
B6,,,,,,,,,,,,,0.072 nM,0.35 nM,0.1 nM
B7,8.31 nM,1.04 nM,1.3 nM,2 nM,0.02 nM,0.05 nM,0.9 nM,0.00053 s⁻¹,590000 M⁻¹ s⁻¹,1.2 nM,0.00039 s⁻¹,330000 M⁻¹ s⁻¹,,,
